The term Kd denotes a measure of binding affinity in units of concentration. Low readings indicate higher affinity, high ones lower affinity.

The target of assay [1] is T1, IGF-IIE (amino acids 1-104 of pro-IGF-II) (human, UniProt P01344 25-128).
T1 construct: Biotinylated in the selections; also called IGF-IIE (104aa)
The assay is described as follows: SPR (Flexchip), Fab, 2nd of duplicate.

For assay [2], the target named is T2, insulin-like growth factor II (IGF-II), amino acids 1-67 (human, UniProt P01344 25-91).
T2 construct: recombinant; also called IGF-II (67aa); IGF2
T2 sequence (P01344 25-91): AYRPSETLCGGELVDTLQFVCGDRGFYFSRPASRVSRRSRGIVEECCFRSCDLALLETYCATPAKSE
Put plainly: SPR (Flexchip), Fab, 2nd of duplicate.

The target in assay [3] is insulin-like growth factor I (IGF-I) (UniProt P05019 49-118). Put plainly: cell-based or functional assay.
insulin-like growth factor I (IGF-I), sequence (P05019 49-118 limits assumed): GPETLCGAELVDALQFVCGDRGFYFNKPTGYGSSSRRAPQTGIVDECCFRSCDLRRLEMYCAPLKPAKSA
In assay [4] the target is T1, IGF-IIE (amino acids 1-104 of …). Put plainly: cell-based or functional assay.
The target in assay [5] is T2, insulin-like growth factor II (IGF-II), …. The assay is described as follows: cell-based or functional assay.
For assay [6], the target named is T1, IGF-IIE (amino acids 1-104 of …). The assay is described as follows: competition SPR (BIACORE T100), affinity in solution, free ligand read on huIR-A ECD; measurement 2. As for the experimental part: (§1) Competition SPR (BIACORE®) was performed under conditions of partially mass-transport limited conditions according to previously described methodology (Nieba et al., 1996). Approximately 16,700 relative response units (RU) of huIR-A (-exon11) ectodomain was coupled by standard amine chemistry to a BIACORE® CM5 chip sensor. Uncoated flow-cell surface was used as a reference. […] Regeneration of the surface was achieved by injection of 30 ul NaCltrate/NaCl pH 4.5. […] These Req estimates were subsequently plotted against total concentrations of Fab used and the resulting inhibition curve was utilised to calculate dissociation constant (KD).

Assay [7] addresses T2, insulin-like growth factor II (IGF-II), …. The description is as above. The procedure:
as §1

In assay [8] the target is T1, IGF-IIE (amino acids 1-104 of …). The assay is described as follows: SPR (Flexchip), Fab, 1st of duplicate.
Assay [9] has as its target T2, insulin-like growth factor II (IGF-II), …. The assay is described as follows: SPR (Flexchip), Fab, 1st of duplicate.
Assay [10] deals with T1, IGF-IIE (amino acids 1-104 of …). The assay is described as follows: competition SPR (BIACORE T100), affinity in solution, free ligand read on huIR-A ECD; measurement 1. As for the experimental part: as §1
In general terms: Surface plasmon resonance follows binding to a sensor surface in real time, without labels.

The target of assay [11] is T2, insulin-like growth factor II (IGF-II), …. The assay is described as above. The procedure: as §1
Assay [12] has as its target T1, IGF-IIE (amino acids 1-104 of …). Put plainly: SPR (BIACORE), IgG.
The target of assay [13] is T2, insulin-like growth factor II (IGF-II), …. The assay is described as follows: SPR (BIACORE), IgG.
For assay [14], the target named is T1, IGF-IIE (amino acids 1-104 of …). Put plainly: SPR, IgG on Protein G', then ligand, then BP; competitor BP2; 0 = no significant competition, 5 = competes strongly. The procedure:
(§2) BIACORE® T100 and a CM5 chip coated with Protein G were utilised to set up following assay. Approximately 1000 RU of Protein G′ was immobilized on a CM5 chip using standard amine chemistry immobilization method.
(§3) 4) Protein G′ surface was finally regenerated by injection of 10 mM Glycine pH 1.5-injected at 30 ul/min for 60 sec.

In assay [15] the target is T2, insulin-like growth factor II (IGF-II), …. Described as above. As for the experimental part:
as §2, §3

For assay [16], the target named is T1, IGF-IIE (amino acids 1-104 of …). Put plainly: SPR, IgG on Protein G', then ligand, then BP; competitor BP4; 0 = no significant competition, 5 = competes strongly. The procedure:
as §2, §3

Assay [17] concerns the target T2, insulin-like growth factor II (IGF-II), …. Described as above. The procedure: as §2, §3
The target of assay [18] is T1, IGF-IIE (amino acids 1-104 of …). Put plainly: cell-based or functional assay. This is another data set of the same source.
Assay [19] addresses T2, insulin-like growth factor II (IGF-II), …. Put plainly: cell-based or functional assay. The source holds these as a separate data set.

T1 sequence (P01344 25-128): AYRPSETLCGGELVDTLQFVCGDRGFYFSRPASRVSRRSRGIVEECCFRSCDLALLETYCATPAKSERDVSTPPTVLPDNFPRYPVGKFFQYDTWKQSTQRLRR

B1: M0064-E04 Fab (Fab, V domains shown)
VH: EVQLLESGGGLVQPGGSLRLSCAASGFTFSVYDMNWVRQAPGKGLEWVSSISSSGGGTLYADSVKGRFTISRDNSKNTLYLQMNSLRAEDTAVYYCARDSDTSSYYWYYDLWGRGTLVTVSS
VL: DIQMTQSPSSLSASVGDRVTITCQASHDISNYLNWYQQKPGKAPKLLIYAASRLQSGVPSRFSGGGSGTDFSLTISSLQAEDFATYYCQQSYSFPRTFGQGTNLEIKR
notes: soluble Fab (sFab); also called R0032-A03; 566A-M0064-E04
On to B1, for which the Kd in assay [1] worked out at 0.12 nM; in [2], 0.25 nM; in [6], 0.424 nM; in assay [7] it was 1.11 nM; in assay [8], 0.093 nM; in [9], 0.12 nM. The Kd in assay [10] was 0.429 nM; in [11], 0.608 nM. Besides, in assay [3], the “IGF-I stimulated Ba/F3 cell proliferation, sFab at 50 µg/ml” value is approximately 30 % inhibition. In addition, in [4], the “IC50, IGF-IIE stimulated Ba/F3 cell proliferation (MTS)” value came out at 5.46 µg/mL. In addition, in [5], the “IC50, IGF-II stimulated Ba/F3 cell proliferation (MTS)” value was 3.04 µg/mL.

B2: M0064-F02 IgG (parental, non-germlined) (antibody, V domains shown)
VH: EVQLLESGGGLVQPGGSLRLSCAASGFTFSNYIMWWVRQAPGKGLEWVSVISSSGGMTRYADSVKGRFTISRDNSKNTLYLQMNSLRAEDTAVYYCARDNGDYVGEKGFDIWGQGTMVTVSS
VL: DIQMTQSPSSLSASVGDRVTITCRASQSISNYLNWYQQKPGKAPKLLIYTASTLQSGVPSRFSGSASGTDFTLTINSLQPEDFATYSCQQSYNSPWTFGQGTKVEIK
Consider B2, for which the equilibrium dissociation constant (Kd) in [12] was 0.032 nM; in [13], 0.14 nM. In addition, the competition score in assay [14], in assay [15], in assay [16] and in [17] was 4 score 0-5 in each case.

B3: X0008-A01 (germlined M0064-F02 IgG) (antibody, V domains shown)
VH: EVQLLESGGGLVQPGGSLRLSCAASGFTFSNYIMWWVRQAPGKGLEWVSVISSSGGMTRYADSVKGRFTISRDNSKNTLYLQMNSLRAEDTAVYYCARDNGDYVGEKGFDIWGQGTMVTVSS
VL: DIQMTQSPSSLSASVGDRVTITCRASQSISNYLNWYQQKPGKAPKLLIYTASTLQSGVPSRFSGSGSGTDFTLTISSLQPEDFATYYCQQSYNSPWTFGQGTKVEIK
Consider B3, for which the Kd was less than 0.023 nM in assay [12] and 0.023 nM in [13].

B4: M0063-F02 Fab (Fab, V domains shown)
VH: EVQLLESGGGLVQPGGSLRLSCAASGFTFSKYEMDWVRQAPGKGLEWVSVISSSGGGTIYADSVKGRFTISRDNSKNTLYLQMNSLRAEDTAMYYCARGRTLYGGAFDIWGQGTMVTVSS
VL: DIQMTQSPSSLSASVGDRVTITCRASQPINTYLNWYQQRPGKAPRILIYTSSTLQSGVPSRFSGSGSGTDFTLTISSVQPEDFATYYCQQSYSFPLTFGGGTKVEIKR
notes: soluble Fab (sFab); also called R0032-A01
For the molecule B4, the equilibrium dissociation constant (Kd) in assay [1] stood at 0.2 nM; in assay [2], 1.6 nM; in assay [6] it was 1.47 nM; in assay [7], 0.858 nM; in [8], 0.12 nM; in assay [9], 0.77 nM. For the same molecule, the values for the Kd in [10] and in assay [11] were 2.78 nM and 1.17 nM, respectively. Further, the “IGF-I stimulated Ba/F3 cell proliferation, sFab at 50 µg/ml” value in [3] was approximately 30 % inhibition. In addition, the “IC50, IGF-IIE stimulated Ba/F3 cell proliferation (MTS)” value in [4] worked out at 2.04 µg/mL. Besides, the “IC50, IGF-II stimulated Ba/F3 cell proliferation (MTS)” value in assay [5] was determined as 5.56 µg/mL.

B5: M0063-F02 IgG (parental) (antibody, V domains shown)
VH: EVQLLESGGGLVQPGGSLRLSCAASGFTFSKYEMDWVRQAPGKGLEWVSVISSSGGGTIYADSVKGRFTISRDNSKNTLYLQMNSLRAEDTAMYYCARGRTLYGGAFDIWGQGTMVTVSS
VL: DIQMTQSPSSLSASVGDRVTITCRASQPINTYLNWYQQRPGKAPRILIYTSSTLQSGVPSRFSGSGSGTDFTLTISSVQPEDFATYYCQQSYSFPLTFGGGTKVEIK
In the case of B5, the “IC50, IGF-IIE stimulated Ba/F3 cell proliferation (Guava ViaCount)” value in assay [18] came to 0.85 nM. Besides, the “IC50, IGF-IIE stimulated Ba/F3 cell proliferation (Guava ViaCount), second study” value in assay [18] is approximately 10 nM. Besides, in assay [19], the “IC50, IGF-II stimulated Ba/F3 cell proliferation (Guava ViaCount)” value was found to be 2 nM. For the same molecule, in assay [19], the “IC50, IGF-II stimulated Ba/F3 cell proliferation (Guava ViaCount), second study” value was approximately 7 nM. The competition score in assay [14] was 1 score 0-5; in assay [15], 1 score 0-5; in assay [16], 1 score 0-5; in assay [17], 0 score 0-5.

B6: M0072-C06 Fab (Fab, V domains shown)
VH: EVQLLESGGGLVQPGGSLRLSCAASGFTFSAYIMTWVRQAPGKGLEWVSSISPSGGYTVYADSVKGRFTISRDNSKNTLYLQMNSLRAEDTAVYYCARDSGFGDPFDYWGQGTMVTVSS
VL: DIQMTQSPSSLSASVGDRVTITCRASQSIRNYLNWYQQKPGKAPKLLIYAASKLEDGVPSRFSGSGTGTDFTLTIRSLQPEDFASYFCQQSYSSPGITFGPGTKVEIKR
notes: soluble Fab (sFab); also called R0032-A09
With B6, the Kd in assay [2] stood at 0.7 nM; in assay [6], 1.05 nM; in [7], 2.52 nM; in [8], 0.52 nM; in assay [9] it was 5.2 nM; in [10], 3.95 nM. This molecule also displayed a dissociation constant Kd in assay [11] of 1.64 nM. In addition, the “IGF-I stimulated Ba/F3 cell proliferation, sFab at 50 µg/ml” value in [3] is approximately 30 % inhibition. The “IC50, IGF-IIE stimulated Ba/F3 cell proliferation (MTS)” value in assay [4] is 2.3 µg/mL. Moreover, the “IC50, IGF-II stimulated Ba/F3 cell proliferation (MTS)” value in assay [5] came out at 5.12 µg/mL.
